From patent publication US20050266528A1

Biological target: von Willebrand factor (vWF) (UniProt P04275)
Experiment: affinity chromatography, peptide immobilised, linear 0-2 mol/l NaCl gradient, vWF antigen ELISA of fractions

UniProt P04275, sequence (P04275 764-2813): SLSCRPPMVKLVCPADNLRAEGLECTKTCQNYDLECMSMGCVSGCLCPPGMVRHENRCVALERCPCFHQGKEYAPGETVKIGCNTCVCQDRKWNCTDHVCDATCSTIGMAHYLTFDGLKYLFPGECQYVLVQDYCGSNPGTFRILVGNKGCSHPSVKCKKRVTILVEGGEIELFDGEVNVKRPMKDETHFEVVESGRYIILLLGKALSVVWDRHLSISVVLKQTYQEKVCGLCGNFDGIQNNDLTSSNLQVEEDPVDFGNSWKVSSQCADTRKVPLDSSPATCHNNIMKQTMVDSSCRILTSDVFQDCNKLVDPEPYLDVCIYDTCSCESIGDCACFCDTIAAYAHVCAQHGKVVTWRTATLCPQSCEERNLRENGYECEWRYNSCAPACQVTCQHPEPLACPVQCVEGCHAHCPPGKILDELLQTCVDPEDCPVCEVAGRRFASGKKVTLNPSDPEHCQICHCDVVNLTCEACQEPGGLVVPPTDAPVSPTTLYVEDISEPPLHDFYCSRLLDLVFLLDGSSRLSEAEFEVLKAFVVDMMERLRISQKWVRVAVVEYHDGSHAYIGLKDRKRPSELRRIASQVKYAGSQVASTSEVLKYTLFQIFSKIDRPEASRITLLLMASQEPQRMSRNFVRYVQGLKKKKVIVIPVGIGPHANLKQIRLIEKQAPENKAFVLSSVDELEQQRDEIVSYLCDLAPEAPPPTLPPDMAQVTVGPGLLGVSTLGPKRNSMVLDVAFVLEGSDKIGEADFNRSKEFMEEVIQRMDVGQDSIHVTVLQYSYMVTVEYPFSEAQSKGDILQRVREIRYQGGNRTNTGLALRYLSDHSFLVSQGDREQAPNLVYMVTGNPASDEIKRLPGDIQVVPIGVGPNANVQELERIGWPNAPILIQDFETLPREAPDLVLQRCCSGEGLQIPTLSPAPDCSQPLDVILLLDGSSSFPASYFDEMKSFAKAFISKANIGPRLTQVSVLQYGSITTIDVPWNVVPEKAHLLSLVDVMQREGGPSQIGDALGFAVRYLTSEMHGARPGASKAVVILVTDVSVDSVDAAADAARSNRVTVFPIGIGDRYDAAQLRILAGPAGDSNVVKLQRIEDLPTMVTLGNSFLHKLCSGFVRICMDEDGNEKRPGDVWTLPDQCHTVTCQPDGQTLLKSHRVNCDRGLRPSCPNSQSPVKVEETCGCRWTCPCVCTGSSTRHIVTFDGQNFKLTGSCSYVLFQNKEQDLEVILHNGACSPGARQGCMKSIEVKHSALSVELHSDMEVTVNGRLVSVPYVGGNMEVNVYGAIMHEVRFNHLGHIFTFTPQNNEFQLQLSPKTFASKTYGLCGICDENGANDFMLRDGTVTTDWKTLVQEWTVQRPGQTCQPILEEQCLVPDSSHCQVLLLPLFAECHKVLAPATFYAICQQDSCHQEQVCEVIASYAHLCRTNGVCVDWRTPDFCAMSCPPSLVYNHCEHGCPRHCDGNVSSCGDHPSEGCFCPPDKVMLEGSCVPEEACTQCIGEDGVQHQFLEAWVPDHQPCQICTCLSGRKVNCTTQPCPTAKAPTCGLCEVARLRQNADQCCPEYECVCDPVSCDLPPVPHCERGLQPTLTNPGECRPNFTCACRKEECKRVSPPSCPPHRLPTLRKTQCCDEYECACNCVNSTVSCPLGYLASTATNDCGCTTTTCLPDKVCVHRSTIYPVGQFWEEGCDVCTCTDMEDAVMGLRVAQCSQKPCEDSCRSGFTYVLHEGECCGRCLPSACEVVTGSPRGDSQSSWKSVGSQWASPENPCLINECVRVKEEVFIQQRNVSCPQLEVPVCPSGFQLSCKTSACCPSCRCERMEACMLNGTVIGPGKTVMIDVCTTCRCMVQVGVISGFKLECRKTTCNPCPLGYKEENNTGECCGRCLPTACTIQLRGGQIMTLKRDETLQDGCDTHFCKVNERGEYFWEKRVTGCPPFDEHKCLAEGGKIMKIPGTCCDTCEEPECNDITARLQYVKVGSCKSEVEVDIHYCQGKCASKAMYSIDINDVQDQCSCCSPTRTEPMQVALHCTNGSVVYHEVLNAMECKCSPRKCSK

NaCl concentration at which vWF elutes from the peptide: 100 mmol/L
Binder: AAGGILHLELLV [peptide with the sequence …]
